The results in this text go back to US20220282217A1 (BIONTECH US, published 2022).

For assay [1], the target named is T1, HLA class I molecule A02.01.
T1 construct: Purified MHC class I complex; also called HLA-A02:01
The assay is described as follows: competition with radiolabeled reference peptide on purified MHC I. The protocol: (§1) Peptides were incubated at varying concentrations with these complexes for 2 days, and the amount of remaining radiolabeled peptide bound to […] was measured using size exclusion gel-filtration.

For assay [2] the target is unchanged. In words: pMHC-I dissociation half-life, 125I-b2m. In short, it runs like this: (§2)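 Biotinylated MHC-I heavy chain made in E. coli, captured on streptavidin plates and complexed with peptide and radiolabelled light chain. Dissociation started with excess unlabelled light chain at 37 °C. Stability is the half-life in hours from scintillation counts.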
Assay [3] has as its target T2, HLA class I molecule B08.01.
T2 construct: Purified MHC class I complex; also called HLA-B08:01
In words: pMHC-I dissociation half-life, 125I-b2m. The method in brief:
as §2

Assay [4] concerns the target T3, HLA class I molecule B07.02.
T3 construct: Purified MHC class I complex; also called HLA-B07:02
The assay is described as follows: competition with radiolabeled reference peptide on purified MHC I. The protocol: as §1

In assay [5] the target is T4, HLA class I molecule A24.02.
T4 construct: Purified MHC class I complex; also called HLA-A24:02
Described as above. The protocol: as §1

Assay [6] concerns the target HLA-A02.01 (human). In words: pMHC-I complex dissociation at 37 C, 125I-b2m, half-life. The protocol: (§3) Briefly, synthetic genes encoding biotinylated MHC-I heavy and light chains are expressed in E. coli and purified from inclusion bodies using standard methods. […] These reactions are carried out in streptavidin coated microplates to bind the biotinylated MHC-I heavy chains to the surface and allow measurement of radiolabeled light chain to monitor complex formation. Dissociation is initiated by addition of higher concentrations of unlabeled light-chain and incubation at 37° C. Stability is defined as the length of time in hours it takes for half of the complexes to dissociate, as measured by scintillation counts.

The target in assay [7] is T5, HLA-A24.02 (human).
T5 construct: As for HLA-A02.01
The assay is described as above. The protocol: as §3

Assay [8] concerns the target HLA-A02.01 (human). In words: competition vs radiolabeled reference peptide on purified MHC I, gel filtration. The protocol: as §1
(Size exclusion chromatography separates by hydrodynamic size, large species first.)

Assay [9] concerns the target T5, HLA-A24.02. The description is as above. The protocol:
as §1

The target in assay [10] is T3, HLA class I molecule B07.02. In words: pMHC-I dissociation assay with 125I-labeled beta2m light chain at 37 C, scintillation counts; time in hours for half of the complexes to dissociate. The protocol:
as §3

The next assay deals with T6, HLA-B07.02 (human).
T6 construct: Purified class I MHC
The assay is described as follows: competition with radiolabeled reference peptide, purified MHC I. The protocol:
as §1

Assay [11] deals with T2, HLA class I molecule B08.01. In words: pMHC-I dissociation assay with 125I-labeled beta2m light chain at 37 C, scintillation counts; time in hours for half of the complexes to dissociate. The protocol: as §3
The target in assay [12] is T7, HLA class I molecule A01.01.
T7 construct: Purified MHC class I complex; also called HLA-A01:01
In words: competition with radiolabeled reference peptide on purified MHC I. The protocol: as §1

Assay [13] deals with T8, HLA class I molecule A03.01.
T8 construct: Purified MHC class I complex; also called HLA-A03:01
The description is as above. The protocol:
as §1

As usually defined, the IC50 is the concentration at which inhibition is half-maximal. Low values mean greater potency, high ones weaker potency. Consider LLYITAFFL (also called NDUFC2 (-KCDT14)(-1)), for which, in assay [1], the IC50 was 713 nM. Further, the “Stability (T1/2 (h))” value in assay [2] is 17 h; in assay [3], 0 h.

The molecule RPLQTHVLPE (also called GATA3 . . ; CSNH) came in with an IC50 in assay [4] of 2530 nM.

For the molecule MFLKAESKI (also called GATA3 . . ; CSNH), in assay [5], the concentration for half-maximal inhibition (IC50) came to 332 nM.

In the case of GVYTFLPSTL (also called ESR1, S463P), the results for the “Stability (T1/2 (h))” value in the assay with HLA-A02.01 [6] and with HLA-A24.02 [7] were 0.4 h and 0 h, respectively. The results for the IC50 with HLA-A02.01 [8] and with HLA-A24.02 [9] were 1200 nM and 7700 nM, respectively.

For the molecule LLALWECSL (also called MSH3(-1)), the figures for the “Stability (T1/2 (h))” value in assay [2] and in assay [3] were 4 h and 0 h, respectively.

As to KPKRDGYMF (also called GATA3 . . ; CSNH), in assay [4], the concentration for half-maximal inhibition (IC50) was 28.2 nM. In assay [10], the “Observed MHC Stability” value turned out to be 8.6 h.

Consider LYITAFFLL (also called NDUFC2 (-KCDT14)(-1)), for which the half-maximal inhibitory concentration (IC50) in assay [5] is 0.1 nM.

The molecule KSRQNHLQL (also called SMAP1(-1)) gave an IC50 with HLA-B07.02 of 78 nM.

Turning to LYITAFFLLD (also called NDUFC2 (-KCDT14)(-1)), the half-inhibitory concentration (IC50) in [5] came to 0.4 nM.

In [4], PPRPPRAAC (also called LMAN1(+1)) gave an IC50 of 32.8 nM.

On to IMKPKRDGYM (also called GATA3 . . ; CSNH), for which the “Observed MHC Stability” value in assay [11] worked out at 0.4 h.

ILDTAGHEEY (also called KRAS, Q61H) returned an IC50 in assay [12] of 64.2 nM.

Consider ILDTAGLEEY (also called KRAS, Q61L), for which, in assay [12], the IC50 amounted to 8.6 nM.

Turning to ILDTAGREEY (also called NRAS, Q61R), in [12], the IC50 was 7 nM.

With ILDTAGKEEY (also called NRAS, Q61K), in assay [12], the IC50 came to 14.3 nM.

Consider FFCWILSCK (also called NDUFC2 (-KCDT14)(+1)), for which the IC50 in assay [13] turned out to be 185 nM.

Consider RLSSVLQRF (also called β2M, . . ; SQIS), for which the IC50 with HLA-A24.02 [9] was found to be 28.2 nM.

For YLVIQLQDKF (also called EGFR: SEPT14), the “Stability (T1/2 (h))” value in the assay with HLA-A02.01 [6] stood at 0 h; in the assay with HLA-A24.02 [7] it was 2.6 h. Also, the IC50 is 2060 nM with HLA-A02.01 [8] and 2150 nM in the assay with HLA-A24.02 [9].

The molecule TTNAFSGEY (also called RAC1, P29S) had an IC50 in [12] of 4.4 nM.

On to GSNEVTTRY (also called RBM27(+1)), for which the IC50 in assay [12] is 606 nM.

LYGLLLEML (also called ESR1, D538G) yielded an IC50 with HLA-A24.02 [9] of 0.8 nM.

Take QPVLWTTPPL (also called GATA3 . . ; CSNH): the IC50 in assay [4] is 109 nM.

As to LYITAFFFCW (also called NDUFC2 (-KCDT14)(+1)), the IC50 in [5] stood at 45.3 nM.

With VPAVPFDLHF (also called GATA3 . . ; CSNH), the IC50 in assay [4] worked out at 2110 nM.

In the case of VVPLCDLLL (also called ESR1, Y537C), the “Stability (T1/2 (h))” value with HLA-A02.01 [6] is 0 h; with HLA-A24.02 [7] it was 0.4 h. In addition, the IC50 in the assay with HLA-A02.01 [8] is 1200 nM; with HLA-A24.02 [9], 3890 nM.

As for VVPLSDLLL (also called ESR1, Y537S), the figures for the “Stability (T1/2 (h))” value with HLA-A02.01 [6] and with HLA-A24.02 [7] were 0 h and 0.5 h, respectively. Also, the IC50 in the assay with HLA-A02.01 [8] was 2550 nM; with HLA-A24.02 [9], 8250 nM.

GPPRPPRAAC (also called LMAN1(+1)) returned an IC50 in assay [4] of 48.6 nM.

For the molecule FLKAESKIM (also called GATA3 . . ; CSNH), in assay [11], the “Observed MHC Stability” value stood at 1.2 h.

As to QVLHECNSL (also called MEK, P124L), the IC50 in assay [1] is 7770 nM. The “Stability (T1/2 (h))” value was determined as 0.5 h in [2] and 0 h in [3].

On to ALKKLRSPL (also called SMAP1(-1)), for which, in the assay with HLA-B07.02, the 50% inhibitory concentration (IC50) was determined as 223 nM.

In turn, YTTNAFSGEY (also called RAC1, P29S) displayed an IC50 in [12] of 10.5 nM.

Consider HVLPEPHLAL (also called GATA3 . . ; CSNH), for which the IC50 in [4] is 1330 nM.

Take TGSNEVTTRY (also called RBM27(+1)): in [12], the IC50 is 15500 nM.

In turn, FFFCWILSCK (also called NDUFC2 (-KCDT14)(+1)) had an IC50 in [13] of 597 nM.

In the case of KLSDSRTAL (also called FRG1B, I1OT), the “Stability (T1/2 (h))” value in assay [3] stood at 0 h.

Molecule LPQARLCLI (also called MSH3(-1)) gave an IC50 in assay [4] of 72.6 nM.

For the molecule EPHLALQPL (also called GATA3 . . ; CSNH), the IC50 in assay [4] came to 17 nM.

The molecule KFPELLCVW (also called β2M, . . ; SIRH) had an IC50 with HLA-A24.02 [9] of 13.7 nM.

As for LHFCRSSIM (also called GATA3 . . ; CSNH), the “Observed MHC Stability” value in assay [11] is 0 h.

Molecule RVQNQGHLL (also called UBR5(-1)) displayed an IC50 in the assay with HLA-B07.02 of 826 nM.

AISTRDPLSK (also called PIK3CA, E542K) gave an IC50 in assay [13] of 57.5 nM.

For KGPELFPLI (also called C11orf95: RELA), the “Stability (T1/2 (h))” value worked out at 0.3 h with HLA-A02.01 [6] and 1.7 h with HLA-A24.02 [7]. For the same molecule, the IC50 with HLA-A02.01 [8] is 101 nM; with HLA-A24.02 [9] it was 14 nM.

With VLWTTPPLQH (also called GATA3 . . ; CSNH), the IC50 in assay [13] is 16 nM.

Regarding VVPLYGLLL (also called ESR1, D538G), the results for the “Stability (T1/2 (h))” value with HLA-A02.01 [6] and with HLA-A24.02 [7] were 0.6 h and 0.8 h, respectively. In addition, in the assay with HLA-A24.02 [9], the 50% inhibitory concentration (IC50) worked out at 658 nM.

Take ESKIMFATL (also called GATA3 . . ; CSNH): the “Observed MHC Stability” value in assay [11] was determined as 1.3 h.

For the molecule FLKAESKIMF (also called GATA3 . . ; CSNH), in [11], the “Observed MHC Stability” value amounted to 0 h.

As to LLYITAFFLL (also called NDUFC2 (-KCDT14)(-1)), the IC50 in assay [1] amounted to 323 nM; in [5], 60.1 nM.

In assay [1], LQVLHECNSL (also called MEK, P124L) gave an IC50 of 4720 nM. For the same molecule, the “Stability (T1/2 (h))” value in assay [2] and in assay [3] was 0 h in each case.
